According to patent US20060024289:

Assays:
[1] = test system: T1, Ac-RRVR-AMC
T1 sequence: RRVR

[2] = target: VEGF165 (UniProt P15692)
[3] = test system: T2, Ac-IEPD-AMC
T2 sequence: XIEPDX

[4] = target: T3, Ac-RQAR-AMC
T3 chain: RQAR

[5] = target: T4, VEGF165, P15692
T4 chain: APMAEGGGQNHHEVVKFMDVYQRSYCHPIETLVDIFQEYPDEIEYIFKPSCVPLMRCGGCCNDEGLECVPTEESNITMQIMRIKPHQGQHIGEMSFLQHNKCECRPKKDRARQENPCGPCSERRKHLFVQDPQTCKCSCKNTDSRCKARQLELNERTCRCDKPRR

[6] = target: T5, extracellular domain of VEGF-R2 (Flk1) fused to the Fc domain of mouse IgG
T5 chain: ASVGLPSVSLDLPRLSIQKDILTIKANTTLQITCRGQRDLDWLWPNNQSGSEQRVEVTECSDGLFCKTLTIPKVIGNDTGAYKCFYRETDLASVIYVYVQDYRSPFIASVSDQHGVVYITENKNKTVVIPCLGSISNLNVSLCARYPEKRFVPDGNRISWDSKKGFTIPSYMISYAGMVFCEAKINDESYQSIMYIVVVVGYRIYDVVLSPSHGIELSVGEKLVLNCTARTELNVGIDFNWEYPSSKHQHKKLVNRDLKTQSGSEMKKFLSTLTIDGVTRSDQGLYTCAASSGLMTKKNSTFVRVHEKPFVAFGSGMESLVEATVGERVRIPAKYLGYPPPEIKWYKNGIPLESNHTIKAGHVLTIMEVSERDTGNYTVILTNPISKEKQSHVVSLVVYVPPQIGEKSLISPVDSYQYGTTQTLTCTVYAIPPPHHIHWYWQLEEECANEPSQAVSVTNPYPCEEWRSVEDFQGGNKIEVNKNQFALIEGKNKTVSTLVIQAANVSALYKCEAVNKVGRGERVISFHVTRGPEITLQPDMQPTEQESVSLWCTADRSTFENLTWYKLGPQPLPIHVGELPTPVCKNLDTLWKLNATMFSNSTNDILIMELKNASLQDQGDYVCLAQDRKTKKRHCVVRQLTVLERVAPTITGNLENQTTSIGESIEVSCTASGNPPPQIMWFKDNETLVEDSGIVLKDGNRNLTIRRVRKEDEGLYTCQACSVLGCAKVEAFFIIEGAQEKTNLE

Molecule: MT-SP1 mutein CB152 (F99V/K224F)
- preference of RRVR over RQAR substrate (ratio of kcat/Km) [1]: prefer RRVR to RQAR by greater than 8 fold
- cleavage of 5 µM VEGF165 by 100 nM protease, 37° C., five hours (SDS-PAGE, silver stain) [2]: while the more selective variant CB152 does not

Molecule: rat granzyme B R192A
- specificity constant (kcat/Km) [3]: 55 M⁻¹ s⁻¹

B1: wild-type MT-SP1 protease domain (protein)
chain: VVGGTDADEGEWPWQVSLHALGQGHICGASLISPNWLVSAAHCYIDDRGFRYSDPTQWTAFLGLHDQSQRSAPGVQERRLKRIISHPFFNDFTFDYDIALLELEKPAEYSSMVRPICLPDASHVFPAGKAIWVTGWGHTQYGGTGALILQKGEIRVINQTTCENLLPQQITPRMMCVGFLSGGVDSCQGDSGGPLSSVEADGRIFQAGVVSWGDGCAQRNKPGVYTRLPLFRDWIKENTGV
- preference of RQAR over RRVR substrate (ratio of kcat/Km) [4]: 2 times
- cleavage of 5 µM VEGF165 by 100 nM protease, 37° C., five hours (SDS-PAGE, silver stain) [5]: MT-SP1 efficiently cleaves VEGF^165 under the assay conditions
- cleavage of purified Flk1-Fc by 1 µM protease (SDS-PAGE, Edman sequencing) [6]: Purified VEGFR2-Fc is cleaved by wild-type and mutant MT-SP1 at the sequence RRVR/KEDE in the extracellular stalk region of the receptor
- cleavage of purified VEGFR2-Fc (SDS-PAGE) [6]: The purified VEGFR2-Fc is efficiently cleaved by wild-type and mutant MT-SP1 ... None of the protease variants or wild-type cleave the Fc domain
